± gives the standard deviation of the averaged measurements.
The sequences below were run on Saccharomyces cerevisiae (assay: protein stability index of tFT-peptide fusion (C-terminal peptide) (PSI (0-1 scale)); higher = more stable (slower turnover)). Conditions: genetic background: wild type; temperature: 30 C.
Description: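 Multiplexed protein stability (MPS) profiling in S. cerevisiae. Random 12-aa peptides (tFT-X12 library) are fused to the C-terminus of a sfGFP-mCherry tandem fluorescent timer, after mCherry and a GGGS linker. Cells are FACS-sorted into 8 mCherry/sfGFP bins and deep-sequenced. The protein stability index (PSI) is the read-weighted bin average, scaled from 0 (unstable) to 1 (stable). Only peptides with >10 reads are reported; cells were grown at 30 °C in SC-His with glucose.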
Work on GREGGEQRKEGK yielded a protein stability index of 0.692 ± 0.029.
With GREGTEIGKWRE the protein stability index was 0.74 ± 0.12.
GRESGNPGEPTC was tested, and the protein stability index was 0.678 ± 0.012.
In the case of GRGGGVGLVVGG, the protein stability index is reported as 0.683 ± 0.019.
GRGGLGWGEWDR showed a protein stability index of 0.699 ± 0.03.
For GRGSCVRISSEG, the protein stability index was 0.706 ± 0.028.
Sequence GRKQMKINDWNI has a protein stability index of 0.636 ± 0.077.
GRKWRTSCQCVS showed a protein stability index of 0.586 ± 0.026.
In the case of GRLFGVVSLCLL, the protein stability index is reported as 0.647 ± 0.035.
GRPRSSAVARSA gave a protein stability index of 0.769 ± 0.036.
Work on GRQILMLGYMVA yielded a protein stability index of 0.548 ± 0.012.
GRQRGGRENEGE was tested, and the protein stability index was 0.673 ± 0.064.
For GRRFIPFSSFIR, the protein stability index was 0.79 ± 0.096.
In the case of GRRGPGRARRWG, the protein stability index is reported as 0.658 ± 0.037.
GRRKGGRKAREC gave a protein stability index of 0.588 ± 0.017.
GRRVAWGAQGLG was tested, and the protein stability index was 0.602 ± 0.046.
GRTPGNALKRND gave a protein stability index of 0.632 ± 0.03.
With GRVAPNANAVKF the protein stability index was 0.607 ± 0.07.
In the case of GRVEDAFSGGGI, the protein stability index is reported as 0.643 ± 0.089.
GRVRYRGSRFLG showed a protein stability index of 0.656 ± 0.013.
GRVSSTRKVGAI gave a protein stability index of 0.678 ± 0.022.
GRWGGRLSWAPG showed a protein stability index of 0.628 ± 0.03.
Work on GRWRCVYRGCGG yielded a protein stability index of 0.646 ± 0.076.
GRYAGFESRFGA showed a protein stability index of 0.666 ± 0.018.
For GRYCDKRLGIVG, the protein stability index was 0.699 ± 0.011.
For GRYLRRDLVGVF, the protein stability index was 0.606 ± 0.051.
GRYRRRLPLCRG showed a protein stability index of 0.663 ± 0.055.
In the case of GRYSGSFWSFWS, the protein stability index is reported as 0.719 ± 0.023.
GSARLPLWSLPP was tested, and the protein stability index was 0.793 ± 0.0082.
With GSAVMLGVSVRV the protein stability index was 0.581 ± 0.043.
In the case of GSCTPLPSIDFD, the protein stability index is reported as 0.648 ± 0.052.
Sequence GSEAGEPRAGRA has a protein stability index of 0.675 ± 0.015.
In the case of GSGGVGVTSGGK, the protein stability index is reported as 0.682 ± 0.056.
For GSGLVTRTSLDY, the protein stability index was 0.726 ± 0.045.
Work on GSGQPDPRDAIG yielded a protein stability index of 0.677 ± 0.057.
GSGTRNLLFIKS gave a protein stability index of 0.6708 ± 0.001.
GSGWRSRRAPGP gave a protein stability index of 0.747 ± 0.047.
Work on GSIWVVGWGQGV yielded a protein stability index of 0.711 ± 0.032.
For GSKVGGVGWRSG, the protein stability index was 0.726 ± 0.0095.
GSLGWRGLVRFF was tested, and the protein stability index was 0.611 ± 0.013.
GSLHGTSAPPRF gave a protein stability index of 0.731 ± 0.15.
Work on GSLPPCPSHAPF yielded a protein stability index of 0.698 ± 0.061.
With GSMVRSDSFLRP the protein stability index was 0.66 ± 0.019.
GSRRSGITSYAN gave a protein stability index of 0.687 ± 0.011.
Sequence GSRVRGVMWSFL has a protein stability index of 0.771 ± 0.067.
GSSCRFGDNTVG was tested, and the protein stability index was 0.738 ± 0.046.
For GSSDTYLLSLVD, the protein stability index was 0.733 ± 0.052.
In the case of GSSMLFIEQEVE, the protein stability index is reported as 0.683 ± 0.028.
GSSPIDGLEVYG showed a protein stability index of 0.654 ± 0.041.
GSSPRVFPPRFC gave a protein stability index of 0.725 ± 0.033.
In the case of GSTLWGRAWGAR, the protein stability index is reported as 0.724 ± 0.02.
In the case of GSVQHRRRDRCD, the protein stability index is reported as 0.676 ± 0.038.
For GSVRGFGGGGEE, the protein stability index was 0.652 ± 0.049.
For GSWGWHVRGSGV, the protein stability index was 0.598 ± 0.037.
Sequence GSYDLMGFQFFI has a protein stability index of 0.632 ± 0.029.
With GTCQALARRTGD the protein stability index was 0.686 ± 0.061.
GTCWAGAMGVVG showed a protein stability index of 0.714 ± 0.043.
Work on GTCWGGAMGVVG yielded a protein stability index of 0.728 ± 0.042.
GTDVFTQAVRNC gave a protein stability index of 0.641 ± 0.019.
With GTFCLFTPCVWM the protein stability index was 0.716 ± 0.044.
Sequence GTKDRSNMIRKS has a protein stability index of 0.6702 ± 0.0044.
GTKGGPSGLEPP gave a protein stability index of 0.7125 ± 0.0018.
In the case of GTLLRINLMTIQ, the protein stability index is reported as 0.663 ± 0.02.
With GTLYLRVTSKEK the protein stability index was 0.717 ± 0.044.
GTPWHLRPRCPF showed a protein stability index of 0.749 ± 0.013.
Sequence GTSCPCGGALRP has a protein stability index of 0.776 ± 0.035.
Work on GTSSTPPPPAPP yielded a protein stability index of 0.661 ± 0.016.
Sequence GTWGGGGWSCES has a protein stability index of 0.725 ± 0.076.
Work on GVAGGGTVVGAQ yielded a protein stability index of 0.693 ± 0.017.
With GVARGFGVVVPA the protein stability index was 0.6427 ± 0.0044.
GVAWGAGVGMMW was tested, and the protein stability index was 0.732 ± 0.025.
GVCWVTAGLWAI gave a protein stability index of 0.6098 ± 0.0021.
GVGAPGARGVWG gave a protein stability index of 0.748 ± 0.048.
Sequence GVGAWGGMCGVV has a protein stability index of 0.724 ± 0.0082.
Work on GVGCGGGGSSCA yielded a protein stability index of 0.703 ± 0.11.
For GVGGCRVRGLGA, the protein stability index was 0.691 ± 0.017.
GVGGENRRNGTV was tested, and the protein stability index was 0.721 ± 0.11.
GVGGGVMGVGRV showed a protein stability index of 0.665 ± 0.01.
GVGQEGVGGRAV gave a protein stability index of 0.707 ± 0.03.
GVGWGSSWVGYG gave a protein stability index of 0.898 ± 0.092.
Work on GVIFRRFDVGLS yielded a protein stability index of 0.682 ± 0.053.
For GVIGFNSLYGIA, the protein stability index was 0.632 ± 0.027.
GVLGCRWWGSMG was tested, and the protein stability index was 0.657 ± 0.015.
GVLPVDKFLKNW was tested, and the protein stability index was 0.735 ± 0.098.
With GVLRDRAFLTCA the protein stability index was 0.618 ± 0.028.
GVLVERLCGRGF was tested, and the protein stability index was 0.702 ± 0.049.
GVPLSGLVCPRP gave a protein stability index of 0.7103 ± 0.001.
Sequence GVRGGRGQGWYR has a protein stability index of 0.6373 ± 0.0018.
With GVRNISELSRLF the protein stability index was 0.644 ± 0.019.
In the case of GVRSGAGGQVVG, the protein stability index is reported as 0.701 ± 0.038.
With GVSIGVLTGAWR the protein stability index was 0.646 ± 0.0015.
GVVGLCLLGLGR gave a protein stability index of 0.701 ± 0.024.
GVVRSAPEAASL showed a protein stability index of 0.573 ± 0.03.
GVVVKDPGNAFL gave a protein stability index of 0.704 ± 0.029.
In the case of GVVVRSCLMGFT, the protein stability index is reported as 0.619 ± 0.022.
GVWGGRGQGWYR gave a protein stability index of 0.674 ± 0.0096.
With GVWLRTARRISK the protein stability index was 0.688 ± 0.037.
GVWTPGPIWGRG showed a protein stability index of 0.7134 ± 0.00084.

From the supplement of paper PMC10724198
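Also: PSI is a weighted mean of sequencing reads over stability bins, variants kept only with over 10 reads, mCherry proximal and sfGFP distal, peptide attached via GGGS linker.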
